Reference: patent US20240067696A1 (ZEALAND PHARMA A S, published 2024)
Blank lines part the entries; values can stand above or below the binder they belong to. Non-standard residues stand in square brackets, D forms with d. Dab = NCC[C@H](N)C(=O)O; Dap = NC[C@H](N)C(=O)O; Aib = CC(C)(N)C(=O)O

Biological target: human glucagon receptor (human, UniProt P47871 26-477)
Experiment: cell-based or functional assay

Chain of human glucagon receptor (P47871 26-477): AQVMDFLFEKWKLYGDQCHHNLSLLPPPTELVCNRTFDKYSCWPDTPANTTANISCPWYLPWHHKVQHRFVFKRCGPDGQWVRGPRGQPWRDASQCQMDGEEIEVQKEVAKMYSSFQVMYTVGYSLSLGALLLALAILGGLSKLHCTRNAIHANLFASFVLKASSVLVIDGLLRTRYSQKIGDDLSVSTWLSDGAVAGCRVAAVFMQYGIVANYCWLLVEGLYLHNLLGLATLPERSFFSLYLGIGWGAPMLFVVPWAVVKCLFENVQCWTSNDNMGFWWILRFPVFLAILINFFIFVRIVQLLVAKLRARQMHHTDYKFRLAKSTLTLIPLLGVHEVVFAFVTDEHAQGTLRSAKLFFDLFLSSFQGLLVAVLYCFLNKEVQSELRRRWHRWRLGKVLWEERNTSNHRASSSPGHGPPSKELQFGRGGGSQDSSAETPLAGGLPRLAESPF

GCG-R EC50 in vitro [nM] (cAMP, AlphaScreen, HEK293 cells expressing human Glucagon-R): 1 nM
Binder: H-HSQGTFTSDYSKYLDSARAEDFVEWLEST-OH [Compound 6]

GCG-R EC50 in vitro [nM] (cAMP, AlphaScreen, HEK293 cells expressing human Glucagon-R): 0.03 nM
Binder: H-HSQGTFTSDYSKYLDKARAEDFVKWLEST-OH [Compound 3]

GCG-R EC50 in vitro [nM] (cAMP, AlphaScreen, HEK293 cells expressing human Glucagon-R): 0.17 nM
Binder: H-HSQGTFTSDYSKYLDEARAKDFVEWLEKT-OH [Compound 5]

GCG-R EC50 in vitro [nM] (cAMP, AlphaScreen, HEK293 cells expressing human Glucagon-R): 0.0044 nM
B1: Compound 39 (peptide)
peptide: H-HS[Dab](Ac)GTFTSDYSKYLD[Aib]ARAEEFVKWLEST-OH
SMILES: CC(=O)NCC[C@H](NC(=O)[C@H](CO)NC(=O)[C@@H](N)Cc1c[nH]cn1)C(=O)NCC(=O)N[C@H](C(=O)N[C@@H](Cc1ccccc1)C(=O)N[C@H](C(=O)N[C@@H](CO)C(=O)N[C@@H](CC(=O)O)C(=O)N[C@@H](Cc1ccc(O)cc1)C(=O)N[C@@H](CO)C(=O)N[C@@H](CCCCN)C(=O)N[C@@H](Cc1ccc(O)cc1)C(=O)N[C@@H](CC(C)C)C(=O)N[C@@H](CC(=O)O)C(=O)NC(C)(C)C(=O)N[C@@H](C)C(=O)N[C@@H](CCCNC(=N)N)C(=O)N[C@@H](C)C(=O)N[C@@H](CCC(=O)O)C(=O)N[C@@H](CCC(=O)O)C(=O)N[C@@H](Cc1ccccc1)C(=O)N[C@H](C(=O)N[C@@H](CCCCN)C(=O)N[C@@H](Cc1c[nH]c2ccccc12)C(=O)N[C@@H](CC(C)C)C(=O)N[C@@H](CCC(=O)O)C(=O)N[C@@H](CO)C(=O)N[C@H](C(=O)O)[C@@H](C)O)C(C)C)[C@@H](C)O)[C@@H](C)O

GCG-R EC50 in vitro [nM] (cAMP, AlphaScreen, HEK293 cells expressing human Glucagon-R): 0.094 nM
B2: Compound 37 (peptide)
peptide: H-HSQGTFTSDYSKYLE[Aib]ARAEEFVKWLEST-OH
SMILES: CC(C)C[C@H](NC(=O)[C@H](Cc1c[nH]c2ccccc12)NC(=O)[C@H](CCCCN)NC(=O)[C@@H](NC(=O)[C@H](Cc1ccccc1)NC(=O)[C@H](CCC(=O)O)NC(=O)[C@H](CCC(=O)O)NC(=O)[C@H](C)NC(=O)[C@H](CCCNC(=N)N)NC(=O)[C@H](C)NC(=O)C(C)(C)NC(=O)[C@H](CCC(=O)O)NC(=O)[C@H](CC(C)C)NC(=O)[C@H](Cc1ccc(O)cc1)NC(=O)[C@H](CCCCN)NC(=O)[C@H](CO)NC(=O)[C@H](Cc1ccc(O)cc1)NC(=O)[C@H](CC(=O)O)NC(=O)[C@H](CO)NC(=O)[C@@H](NC(=O)[C@H](Cc1ccccc1)NC(=O)[C@@H](NC(=O)CNC(=O)[C@H](CCC(N)=O)NC(=O)[C@H](CO)NC(=O)[C@@H](N)Cc1c[nH]cn1)[C@@H](C)O)[C@@H](C)O)C(C)C)C(=O)N[C@@H](CCC(=O)O)C(=O)N[C@@H](CO)C(=O)N[C@H](C(=O)O)[C@@H](C)O

GCG-R EC50 in vitro [nM] (cAMP, AlphaScreen, HEK293 cells expressing human Glucagon-R): 0.0047 nM
B5: Compound 38 (peptide)
peptide: H-HSHGTFTSDYSKYLD[Aib]ARAEEFVKWLEST-NH2
SMILES: CC(C)C[C@H](NC(=O)[C@H](Cc1c[nH]c2ccccc12)NC(=O)[C@H](CCCCN)NC(=O)[C@@H](NC(=O)[C@H](Cc1ccccc1)NC(=O)[C@H](CCC(=O)O)NC(=O)[C@H](CCC(=O)O)NC(=O)[C@H](C)NC(=O)[C@H](CCCNC(=N)N)NC(=O)[C@H](C)NC(=O)C(C)(C)NC(=O)[C@H](CC(=O)O)NC(=O)[C@H](CC(C)C)NC(=O)[C@H](Cc1ccc(O)cc1)NC(=O)[C@H](CCCCN)NC(=O)[C@H](CO)NC(=O)[C@H](Cc1ccc(O)cc1)NC(=O)[C@H](CC(=O)O)NC(=O)[C@H](CO)NC(=O)[C@@H](NC(=O)[C@H](Cc1ccccc1)NC(=O)[C@@H](NC(=O)CNC(=O)[C@H](Cc1c[nH]cn1)NC(=O)[C@H](CO)NC(=O)[C@@H](N)Cc1c[nH]cn1)[C@@H](C)O)[C@@H](C)O)C(C)C)C(=O)N[C@@H](CCC(=O)O)C(=O)N[C@@H](CO)C(=O)N[C@H](C(N)=O)[C@@H](C)O

GCG-R EC50 in vitro [nM] (cAMP, AlphaScreen, HEK293 cells expressing human Glucagon-R): 0.01 nM
B6: Compound 36 (peptide)
peptide: H-HSQGTFTSDYSKYLD[Aib]ARAEEFVKWLEET-OH
SMILES: CC(C)C[C@H](NC(=O)[C@H](Cc1c[nH]c2ccccc12)NC(=O)[C@H](CCCCN)NC(=O)[C@@H](NC(=O)[C@H](Cc1ccccc1)NC(=O)[C@H](CCC(=O)O)NC(=O)[C@H](CCC(=O)O)NC(=O)[C@H](C)NC(=O)[C@H](CCCNC(=N)N)NC(=O)[C@H](C)NC(=O)C(C)(C)NC(=O)[C@H](CC(=O)O)NC(=O)[C@H](CC(C)C)NC(=O)[C@H](Cc1ccc(O)cc1)NC(=O)[C@H](CCCCN)NC(=O)[C@H](CO)NC(=O)[C@H](Cc1ccc(O)cc1)NC(=O)[C@H](CC(=O)O)NC(=O)[C@H](CO)NC(=O)[C@@H](NC(=O)[C@H](Cc1ccccc1)NC(=O)[C@@H](NC(=O)CNC(=O)[C@H](CCC(N)=O)NC(=O)[C@H](CO)NC(=O)[C@@H](N)Cc1c[nH]cn1)[C@@H](C)O)[C@@H](C)O)C(C)C)C(=O)N[C@@H](CCC(=O)O)C(=O)N[C@@H](CCC(=O)O)C(=O)N[C@H](C(=O)O)[C@@H](C)O

The remaining lines, values behind:

Binder: H-HSQGTFTSDYSKYLESARAEDFVKWLEST-OH [Compound 8]
GCG-R EC50 in vitro [nM] (cAMP, AlphaScreen, HEK293 cells expressing human Glucagon-R): 0.38 nM

B3: Compound 41 (peptide)
peptide: H-HS[Dap](Ac)GTFTSDYSKYLD[Aib]ARAEEFVKWLEST-NH2
SMILES: CC(=O)NC[C@H](NC(=O)[C@H](CO)NC(=O)[C@@H](N)Cc1c[nH]cn1)C(=O)NCC(=O)N[C@H](C(=O)N[C@@H](Cc1ccccc1)C(=O)N[C@H](C(=O)N[C@@H](CO)C(=O)N[C@@H](CC(=O)O)C(=O)N[C@@H](Cc1ccc(O)cc1)C(=O)N[C@@H](CO)C(=O)N[C@@H](CCCCN)C(=O)N[C@@H](Cc1ccc(O)cc1)C(=O)N[C@@H](CC(C)C)C(=O)N[C@@H](CC(=O)O)C(=O)NC(C)(C)C(=O)N[C@@H](C)C(=O)N[C@@H](CCCNC(=N)N)C(=O)N[C@@H](C)C(=O)N[C@@H](CCC(=O)O)C(=O)N[C@@H](CCC(=O)O)C(=O)N[C@@H](Cc1ccccc1)C(=O)N[C@H](C(=O)N[C@@H](CCCCN)C(=O)N[C@@H](Cc1c[nH]c2ccccc12)C(=O)N[C@@H](CC(C)C)C(=O)N[C@@H](CCC(=O)O)C(=O)N[C@@H](CO)C(=O)N[C@H](C(N)=O)[C@@H](C)O)C(C)C)[C@@H](C)O)[C@@H](C)O
GCG-R EC50 in vitro [nM] (cAMP, AlphaScreen, HEK293 cells expressing human Glucagon-R): 0.0038 nM

B4: Compound 40 (peptide)
peptide: H-HS[Dab](Ac)GTFTSDYSKYLD[Aib]ARAEEFVKWLEST-NH2
SMILES: CC(=O)NCC[C@H](NC(=O)[C@H](CO)NC(=O)[C@@H](N)Cc1c[nH]cn1)C(=O)NCC(=O)N[C@H](C(=O)N[C@@H](Cc1ccccc1)C(=O)N[C@H](C(=O)N[C@@H](CO)C(=O)N[C@@H](CC(=O)O)C(=O)N[C@@H](Cc1ccc(O)cc1)C(=O)N[C@@H](CO)C(=O)N[C@@H](CCCCN)C(=O)N[C@@H](Cc1ccc(O)cc1)C(=O)N[C@@H](CC(C)C)C(=O)N[C@@H](CC(=O)O)C(=O)NC(C)(C)C(=O)N[C@@H](C)C(=O)N[C@@H](CCCNC(=N)N)C(=O)N[C@@H](C)C(=O)N[C@@H](CCC(=O)O)C(=O)N[C@@H](CCC(=O)O)C(=O)N[C@@H](Cc1ccccc1)C(=O)N[C@H](C(=O)N[C@@H](CCCCN)C(=O)N[C@@H](Cc1c[nH]c2ccccc12)C(=O)N[C@@H](CC(C)C)C(=O)N[C@@H](CCC(=O)O)C(=O)N[C@@H](CO)C(=O)N[C@H](C(N)=O)[C@@H](C)O)C(C)C)[C@@H](C)O)[C@@H](C)O
GCG-R EC50 in vitro [nM] (cAMP, AlphaScreen, HEK293 cells expressing human Glucagon-R): 0.0035 nM

Binder: H-HSQGTFTSDYSKYLDSARAEDFVAWLEST-OH [Compound 4]
GCG-R EC50 in vitro [nM] (cAMP, AlphaScreen, HEK293 cells expressing human Glucagon-R): 0.34 nM

Binder: H-HSQGTFTSDYSRYLESARAEDFVKWLEST-OH [Compound 7]
GCG-R EC50 in vitro [nM] (cAMP, AlphaScreen, HEK293 cells expressing human Glucagon-R): 0.93 nM
